Test results reported in patent publication US20260191954A1, “COMPOSITIONS AND METHODS FOR NEOADJUVANT TREATMENT IN CANCER” (INNATE PHARMA, priority 2022, published 2026).
Entries after “also recorded” stand apart in the source; their conditions may differ.

B1: IPH5201 (humanized anti-CD39 antibody having the respective heavy and light chain amino acid sequences of SEQ ID NOS: 10 and 11) (antibody, human IgG1, kappa, V domains shown)
VH: QVQLVQSGAEVKKPGASVKVSCKASGYTFTDYNMHWVRQAPGQRLEWIGYIVPLNGGSTFNQKFKGRATITVDTSARTAYMELSSLRSEDTAVYYCARGGTRFAYWGQGTLVTVSS
VL: DIVMTQSPDSLAVSLGERATINCRASESVDNFGVSFMYWFQQKPGQPPKLLIYGASNQGSGVPDRFSGSGSGTDFTLTISSLQAEDVAVYYCQQTKEVPYTFGGGTKVEIKR
B2: molPH5201: antibody having the VH and VL of SEQ ID NOS: 8 and 9 and murine constant domains, Fc substituted to eliminate mouse Fcγ receptor binding (antibody, V domains shown)
VH: B1 VH
VL: DIVMTQSPDSLAVSLGERATINCRASESVDNFGVSFMYWFQQKPGQPPKLLIYGASNQGSGVPDRFSGSGSGTDFTLTISSLQAEDVAVYYCQQTKEVPYTFGGGTKVEIK
modifications: murine constant domains, Fc-silenced

How the values were obtained:
[1] = molecular target: T1, human CD39, membrane-bound, as expressed on cells (human, UniProt P49961 1-510); assay: indirect response PD model (inhibition on Kin) fitted to free mCD39 on monocytes of treated patients; flow cytometry, free CD39 detected with a labelled antibody having the VH and VL of IPH5201
T1 construct: On OAW42 cells, on monocytes and B cells of patients, in patients' tumour tissue, and in tissues of human CD39 knock-in mice; also called mCD39
T1 sequence: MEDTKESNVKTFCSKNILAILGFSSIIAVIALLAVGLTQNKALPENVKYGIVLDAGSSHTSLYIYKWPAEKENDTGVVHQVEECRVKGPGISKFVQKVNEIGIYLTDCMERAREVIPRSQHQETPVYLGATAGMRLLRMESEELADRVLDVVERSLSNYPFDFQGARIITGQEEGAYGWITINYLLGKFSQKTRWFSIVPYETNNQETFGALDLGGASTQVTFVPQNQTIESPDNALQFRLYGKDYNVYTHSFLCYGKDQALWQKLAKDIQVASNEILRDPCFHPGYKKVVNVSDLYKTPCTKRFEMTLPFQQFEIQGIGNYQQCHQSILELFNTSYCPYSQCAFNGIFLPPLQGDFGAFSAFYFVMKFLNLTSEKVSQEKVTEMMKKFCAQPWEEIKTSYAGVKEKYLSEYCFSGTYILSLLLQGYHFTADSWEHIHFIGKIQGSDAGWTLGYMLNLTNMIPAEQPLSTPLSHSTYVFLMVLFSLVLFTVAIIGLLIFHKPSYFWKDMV
Description: PK/PD modelling and simulation were used to guide selection of doses. IPH5201 PK data from 45 patients and PD data of free membrane CD39 (mCD39) occupancy on monocytes from 43 patients were available. A population PK model was developed with IPH5201 PK best described as a 2-compartment model with parallel linear and saturatable kinetics.
An indirect response PD model (inhibition on Kᵢₙ) was then built to describe the relationship between IPH5201 concentrations and free mCD39 on monocytes (FIG. 10). The model accurately predicted CD39free+ of monocytes (%). […] The final indirect response model was then used for parametric simulation.
To assess free CD39 on monocytes and B cells, blood samples are spiked with an antibody having the VH and VL of IPH5201 and a mouse Fc domain and labelled with a fluorochrome. A second non-competing anti-CD39 monoclonal antibody labelled with a distinct fluorochrome is used to bind to a site on CD39 distinct from the capture antibody. CD14, CD19 and CD45 are detected by incubation with anti-CD14, CD19 and CD45 monoclonal antibodies each labelled with a distinct fluorochrome. Binding is detected by flow cytometry.

[2] = system: adenosine in MCA205 tumors; assay: Intratumoral adenosine in MCA205 tumors in huCD39KI mice (LC-MS/MS); assay type: in vivo, human CD39 knock-in (huCD39KI) mice; details: molPH5201 20 mg/kg on day 7 and 14; tumors harvested day 16; vs isotype control; FIG. 4
Protocol: Expression of human CD39 in MCA205 tumors engrafted in human CD39 knock-in (huCD39KI) mice was assessed, followed by measure of intratumoral levels of adenosine after in vivo treatment with molPH5201, an antibody having the VH and VL or SEQ ID NO NOS: 8 and 9 and murine constant domains including an Fc domain with amino acid substitutions to eliminate binding to mouse Fcγ receptors, in order to evaluate the reduction of adenosine levels in tumors by molPH5201 can reduce in vivo.
(§1) Human CD39 expression on MCA205 tumors harvested on day 16 post engraftment was evaluated by IHC with EPR20627 clone from Abcam B&C. MCA205 tumors were engrafted in huCD39KI mice. On day 7 and 14 post tumor implantation, they were treated with molPH5201 (20 mg/kg) or isotype control. On day 16, tumors were harvested. Results are shown in FIG. 4, left hand panel, showing that a significant percentage of cells express CD39.
Quantification of adenosine in the harvested MCA205 tumors was performed using pre-column derivatization and liquid chromatography-mass spectrometry (LC-MS/MS) as described by Goodwin et al. 2019 Anal Biochem 568:78-88.

CD39 enzymatic activity = molecular target: T2, CD39 enzymatic activity (Homo sapiens, UniProt P49961); assay: Wachstein-Meisel CD39 enzyme assay on tissues of treated mice; assay type: in vivo, huCD39KI mice; details: tissues from molPH5201-treated animals; brown color indicates enzyme activity
T2 construct: genetically modified to express human CD39 in place of its murine counterpart mouse CD39; from tissue; host or cells: tissues (MCA205 tumours) of huCD39KI mice treated with moIPH5201
T2 sequence (P49961 1-510): T1 sequence
Protocol: as §1
Blockade of CD39 enzymatic activity was determined using the Wachstein-Meisel CD39 enzyme assay (brown color indicates enzyme activity).

MC38 cancer cell line = assay: MC38 tumor growth in huCD39KI mice (gemcitabine +/- anti-PD-L1 +/- molPH5201); assay type: in vivo, human CD39 knock-in (huCD39KI) mice
Protocol: In vivo experiments were performed in human CD39 knock-in (huCD39KI) mice, genetically modified to express human CD39 in place of its murine counterpart mouse CD39. These mice were sub-cutaneously (s.c.) engrafted with the MC38 cancer cell line. Mice bearing established tumors were dosed with isotype control (IC) antibodies, anti-human CD39 antibody (molPH5201, described above), gemcitabine chemotherapy and anti-mouse PD-L1 antibody (an antibody that binds murine PD-L1 having an Fc domain with amino acid substitutions to eliminate binding to mouse Fcγ receptors.
Male and female huCD39KI mice were engrafted subcutaneously (s.c.) with 1×10^6 MC38 cancer cells. Treatments were initiated after mouse randomization. Mice were treated twice a week for two weeks with gemcitabine (25 mg/kg) or PBS (at day 8, 11, 15 and 18 after cell engraftment) and once a week for four weeks with either anti-human CD39 antibody (molPH5201) or the corresponding isotype control (IC) antibody (400 μg/mouse).
Randomization of mice into four groups was performed on day 7 post tumor cell engraftment, at a mean tumor volume of 72 mm^3±27 mm^3 with individual tumor volumes comprised between 37 and 130 mm^3.
(§2) Male and female huCD39KI mice were engrafted s.c. with 1×10^6 MC38. Treatments were initiated after mouse randomization. Mice were treated twice a week for two weeks with gemcitabine (25 mg/kg) or PBS, twice a week for three weeks with either anti-mouse PD-L1 antibody or the corresponding IC antibody (200 μg/mouse) and once a week for four or five weeks depending on the experiment with either anti-human CD39 antibody (molPH5201) or the corresponding IC antibody (400 μg/mouse). Mouse randomization into five groups was performed on day 7 post tumor cell engraftment at a mean tumor volume of 62 mm^3±23 mm^3 with individual tumor volumes comprised between 31 and 117 mm^3.
as §2, with “As in Experiment 1, male” for “Male”, “64” for “62”, “115” for “117”
as §2, with “As in Experiments 1 and 2, male” for “Male”, “engraftment,” for “engraftment”, “74 mm^3±21” for “62 mm^3±23”, “40” for “31”, “121” for “117”
The three experiments were pooled and results are shown in FIG. 9, showing Tumor growth of MC38 tumor in huCD39KI mice post treatment with gemcitabine+/−anti-PD-L1+/−molPH5201. MC38 tumor-bearing huCD39KI mice were randomized on day 7 and then treated as indicated with 25 mg/kg ip of gemcitabine or PBS, 200 μg ip of anti-mouse PD-L1 antibody or corresponding isotype control antibody and with 400 μg iv of molPH5201 or corresponding IC antibody. Graphs show tumor growth in each individual (n=31/group). CR: Complete Response.

Molecule | IC50 [1] [µg/mL] | intratumoral adenosine compared to control [2] | CD39 enzymatic activity in tissues (CD39 enzymatic activity) | number of complete response when combined with gemcitabine, in comparison to gemcitabine alone (MC38 cancer cell line; Experiment 1 (FIG. 6)) | improvement of anti-tumor effect over the comparator named in the value (MC38 cancer cell line; Experiment 1 (FIG. 6), triple vs gemcitabine alone p<0.05 when control group was excluded) | improvement of anti-tumor efficacy over the comparator named in the value (MC38 cancer cell line; Experiment 2 (FIG. 7), difference marginally significant, p<0.1, control group excluded) | number of complete response (CR) on combination (MC38 cancer cell line; Experiment 3 (FIG. 8)) | improvement of anti-tumor effect over the comparator named in the value (MC38 cancer cell line; Experiment 3 (FIG. 8), triple vs gemcitabine alone marginally significant p<0.1, control group excluded) | improvement of the anti-tumor efficacy of gemcitabine (MC38 cancer cell line; gemcitabine +/- molPH5201 experiment (FIG. 5)) | tumor growth compared to the control group (MC38 cancer cell line; gemcitabine +/- molPH5201 experiment (FIG. 5), gemcitabine 25 mg/kg, molPH5201 400 μg/mouse, p<0.001 where significant) | improvement of anti-tumor efficacy over the comparator named in the value (MC38 cancer cell line; pooled analysis of three experiments (FIG. 9), n=31/group, p<0.05 where improved, linear-mixed effect model)
B1 | 2.44 | – | – | – | – | – | – | – | – | – | –
B2 | – | less intratumoral adenosine | decreased CD39 enzymatic activity | increased the number of complete response | Neither anti-PD-L1 nor molPH5201 improved the anti-tumor effect of gemcitabine; also recorded: did not statistically significantly improve gemcitabine+anti-PD-L1 efficacy | tended to improve the anti-tumor efficacy of the combination gemcitabine+anti-PD-L1 | did not increase the number of CR | Neither anti-PD-L1 nor molPH5201 improved the anti-tumor effect of gemcitabine; also recorded: did not statistically significantly improve gemcitabine+anti-PD-L1 efficacy | did not improve the anti-tumor efficacy of gemcitabine | did not modify tumor growth | neither anti-PD-L1 nor molPH5201 improved the anti-tumor effect of gemcitabine; also recorded: improved the anti-tumor efficacy of the gemcitabine+anti-PD-L1 combination
